Experimental data published in paper PMC11983104 (Nucleic Acids Research, 2025).

Molecular target: GST-NLE1-Ubl WT (human, UniProt Q9NVX2 11-104)
Test: ITC

Sequence of GST-NLE1-Ubl WT (Q9NVX2 11-104): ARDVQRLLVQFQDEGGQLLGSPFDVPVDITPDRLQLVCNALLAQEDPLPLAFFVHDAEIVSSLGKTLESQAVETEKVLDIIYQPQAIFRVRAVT

B1: MDN1-MIDAS-(His)6 (domain or fragment)
chain: ELERQLEMWQPRESGNPEEEKVAAEMWQSYLILTAPLSQRLCEELRLILEGSGKPSKRQYQICLAIDDSSSMVDNHTKQLAFESLAVIGNALTLLEVGQIAVCSFGESVKLLHPFHEQFSDYSGSQILRLCKFQQKKTKIAQFLESVANMFAAAQQLSQNISSETAQLLLVVSDGRGLFLEGKERVLAAVQAARNANIFVIFVVLDNPSSRDSILDIKVPIFKGPGEMPEIRSYMEEFPFPYYIILRDVNALPETLSDALRQWFELVTASDHP
  Kd: 5.5 nM
